B1: CPOX (parent)
chain: HAPTIHFNYRYFEVEEADGNKQWW
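Also: lentivirally expressed fusions sorted by FACS into six bins by GFP to DsRed ratio, PSI derived from sequencing read proportions per bin multiplied by bin number.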

Variants of: B1
Test: protein stability index of a GFP-peptide fusion (GPS, HEK-293T) (PSI 1-6); higher = more stable
Conditions: c terminus: a fixed tail appended
Variant HAPTIHFNYRYFTVEEADGNKQWW [E13T] has a protein stability index of 1.67. Variant HAPTIHFNYRYFRVEEADGNKQWW [E13R] has a protein stability index of 1.56. Work on HAPTIHFNYRYFNVEEADGNKQWW [E13N] yielded a protein stability index of 2.15. With HAPTIHFNYRYFLVEEADGNKQWW [E13L] the protein stability index was 1.41. HAPTIHFNYRYFVVEEADGNKQWW [E13V] showed a protein stability index of 2.52. In the case of HAPTIHFNYRYFSVEEADGNKQWW [E13S], the protein stability index is reported as 1.45. Variant HAPTIHFNYRYFPVEEADGNKQWW [E13P] has a protein stability index of 1.86. HAPTIHFNYRYFYVEEADGNKQWW [E13Y] showed a protein stability index of 1.7. For HAPTIHFNYRYFMVEEADGNKQWW [E13M], the protein stability index was 2.22. For HAPTIHFNYRYFQVEEADGNKQWW [E13Q], the protein stability index was 2.17. HAPTIHFNYRYFWVEEADGNKQWW [E13W] gave a protein stability index of 2.31. In the case of HAPTIHFNYRYFKVEEADGNKQWW [E13K], the protein stability index is reported as 1.8. HAPTIHFNYRYFEVEEADGNKLWW [Q22L] gave a protein stability index of 2.01. HAPTIHFNYRYFEVEEADGNKYWW [Q22Y] showed a protein stability index of 2.5. HAPTIHFNYRYFEVEEADGNKPWW [Q22P] gave a protein stability index of 2.56. Variant HAPTIHFNYRYFEVEEADGNKWWW [Q22W] has a protein stability index of 2. Variant HAPTIHFNYRYFEVEEADGNKVWW [Q22V] has a protein stability index of 1.9. For HAPTIHFNYRYFEVEEADGNKRWW [Q22R], the protein stability index was 2.5. HAPTIHFNYRYFEVEEADGNKGWW [Q22G] showed a protein stability index of 2.46. For HAPTIHFNYRYFEVEEADGNKNWW [Q22N], the protein stability index was 2.19. HAPTIHFNYRYFEVEEADGNKFWW [Q22F] showed a protein stability index of 1.67. HAPTIHFNYRYFEVEEADGNKHWW [Q22H] gave a protein stability index of 2.03. With HAPTIHFNYRYFEVEEADGNKIWW [Q22I] the protein stability index was 2.3. Work on HAPTIHFNYRYFEVEEADGNKDWW [Q22D] yielded a protein stability index of 3.12. Variant HAPTIHFNYRYFEVEEADGNKTWW [Q22T] has a protein stability index of 2.27. HAPTIHFNYRYFEVEEADGNKMWW [Q22M] gave a protein stability index of 1.76. HAPTIHFNYRYFEVEEADGNKEWW [Q22E] showed a protein stability index of 3.35. HAPTIHFNYRYFEVEEADGNKCWW [Q22C] gave a protein stability index of 1.96. For HAPTIHFNYRYFEVEEADGNKAWW [Q22A], the protein stability index was 1.98. For HAPTIHFNYRYFEVEEADGNKSWW [Q22S], the protein stability index was 1.59. Work on HAPTIHFNYRYFEVEEADGPKQWW [N20P] yielded a protein stability index of 1.98. In the case of HAPTIHFNYRYFEVEEADGAKQWW [N20A], the protein stability index is reported as 1.76. For HAPTIHFNYRYFEVEEADGKKQWW [N20K], the protein stability index was 3.29. With HAPTIHFNYRYFEVEEADGYKQWW [N20Y] the protein stability index was 1.66. With HAPTIHFNYRYFEVEEADGRKQWW [N20R] the protein stability index was 2.46. HAPTIHFNYRYFEVEEADGWKQWW [N20W] showed a protein stability index of 1.88. With HAPTIHFNYRYFEVEEADGSKQWW [N20S] the protein stability index was 2.08. With HAPTIHFNYRYFEVEEADGFKQWW [N20F] the protein stability index was 1.07. In the case of HAPTIHFNYRYFEVEEADGVKQWW [N20V], the protein stability index is reported as 2.27. For HAPTIHFNYRYFEVEEADGMKQWW [N20M], the protein stability index was 1.32. HAPTIHFNYRYFEVEEADGGKQWW [N20G] gave a protein stability index of 2.38. Variant HAPTIHFNYRYFEVEEADGHKQWW [N20H] has a protein stability index of 2.38. Work on HAPTIHFNYRYFEVEEADGIKQWW [N20I] yielded a protein stability index of 2.34. With HAPTIHFNYRYFEVEEADGTKQWW [N20T] the protein stability index was 2.85. HAPTIHFNYRYFEVEEADGQKQWW [N20Q] gave a protein stability index of 2.95. For HAPTIHFNYRYFEVEEADGEKQWW [N20E], the protein stability index was 2.75. Work on HAPTIHFNYRYFEVEEADGCKQWW [N20C] yielded a protein stability index of 1.87. HAPTIHFNYRYFEVEEADGDKQWW [N20D] showed a protein stability index of 2.12. Variant HAPTIHFNYRYFEVEEADGLKQWW [N20L] has a protein stability index of 2.12. HAPTIHFNYRYFEVEEEDGNKQWW [A17E] showed a protein stability index of 3.01. HAPTIHFNYRYFEVEECDGNKQWW [A17C] gave a protein stability index of 2.08. In the case of HAPTIHFNYRYFEVEEDDGNKQWW [A17D], the protein stability index is reported as 2.6. HAPTIHFNYRYFEVEEIDGNKQWW [A17I] showed a protein stability index of 1.86. HAPTIHFNYRYFEVEEPDGNKQWW [A17P] gave a protein stability index of 2.05. For HAPTIHFNYRYFEVEEQDGNKQWW [A17Q], the protein stability index was 2.31. With HAPTIHFNYRYFEVEEFDGNKQWW [A17F] the protein stability index was 1.97. Variant HAPTIHFNYRYFEVEEKDGNKQWW [A17K] has a protein stability index of 2.9. HAPTIHFNYRYFEVEESDGNKQWW [A17S] gave a protein stability index of 2.23. HAPTIHFNYRYFEVEETDGNKQWW [A17T] showed a protein stability index of 2.35. Variant HAPTIHFNYRYFEVEERDGNKQWW [A17R] has a protein stability index of 2.02. Variant HAPTIHFNYRYFEVEEHDGNKQWW [A17H] has a protein stability index of 1.89. HAPTIHFNYRYFEVEENDGNKQWW [A17N] gave a protein stability index of 3.19. With HAPTIHFNYRYFEVEEVDGNKQWW [A17V] the protein stability index was 1.9. Work on HAPTIHFNYRYFEVEEGDGNKQWW [A17G] yielded a protein stability index of 2.57. In the case of HAPTIHFNYRYFEVEEYDGNKQWW [A17Y], the protein stability index is reported as 1.77. With HAPTIHFNYRYFEVEEMDGNKQWW [A17M] the protein stability index was 2.27. HAPTIHFNYRYFEVEELDGNKQWW [A17L] showed a protein stability index of 1.96. In the case of HAPTIHFNYRYFEVIEADGNKQWW [E15I], the protein stability index is reported as 2.7. HAPTIHFNYRYFEVAEADGNKQWW [E15A] gave a protein stability index of 1.93. Variant HAPTIHFNYRYFEVHEADGNKQWW [E15H] has a protein stability index of 1.5. For HAPTIHFNYRYFEVQEADGNKQWW [E15Q], the protein stability index was 2.2. With HAPTIHFNYRYFEVPEADGNKQWW [E15P] the protein stability index was 2.13. HAPTIHFNYRYFEVFEADGNKQWW [E15F] gave a protein stability index of 2.14. For HAPTIHFNYRYFEVSEADGNKQWW [E15S], the protein stability index was 2.49. Work on HAPTIHFNYRYFEVTEADGNKQWW [E15T] yielded a protein stability index of 1.81. Variant HAPTIHFNYRYFEVREADGNKQWW [E15R] has a protein stability index of 1.41. Variant HAPTIHFNYRYFEVCEADGNKQWW [E15C] has a protein stability index of 2.15. With HAPTIHFNYRYFEVLEADGNKQWW [E15L] the protein stability index was 2.49. For HAPTIHFNYRYFEVYEADGNKQWW [E15Y], the protein stability index was 1.9. Variant HAPTIHFNYRYFEVDEADGNKQWW [E15D] has a protein stability index of 2.58. HAPTIHFNYRYFEVWEADGNKQWW [E15W] gave a protein stability index of 2.4. For HAPTIHFNYRYFEVKEADGNKQWW [E15K], the protein stability index was 2.56. In the case of HAPTIHFNYRYFEVMEADGNKQWW [E15M], the protein stability index is reported as 2.35. For HAPTIHFNYRYFEVVEADGNKQWW [E15V], the protein stability index was 1.79. Variant HAPTIHFNYRYFEVNEADGNKQWW [E15N] has a protein stability index of 1.84. Work on HAPTIHFNYRYFEVGEADGNKQWW [E15G] yielded a protein stability index of 2.04. HAPTIHFNYRYFEVEEARGNKQWW [D18R] gave a protein stability index of 2.18. HAPTIHFNYRYFEVEEAIGNKQWW [D18I] showed a protein stability index of 1.5. HAPTIHFNYRYFEVEEAEGNKQWW [D18E] showed a protein stability index of 2.63. Work on HAPTIHFNYRYFEVEEALGNKQWW [D18L] yielded a protein stability index of 1.3. Variant HAPTIHFNYRYFEVEEAFGNKQWW [D18F] has a protein stability index of 3.24. HAPTIHFNYRYFEVEEAHGNKQWW [D18H] gave a protein stability index of 2.86. HAPTIHFNYRYFEVEEASGNKQWW [D18S] gave a protein stability index of 2. For HAPTIHFNYRYFEVEEAGGNKQWW [D18G], the protein stability index was 2.45.

— the supplement of paper PMC10567573
